From the Human Domainome abundance scans (Beltran et al. 2025)
± gives the uncertainty stated by the source.

Assay: abundance fitness (aPCA) (normalised: wild type 0, dead -1); higher = more abundant; growth selection in yeast, the domain comes from the species named
Settings: Homo sapiens

Scaffold attachment factor B1 P72Q, Q15424
abundance fitness: -0.432 ± 0.098

Scaffold attachment factor B1 P72R, Q15424
abundance fitness: -0.23 ± 0.052

Scaffold attachment factor B1 P72S, Q15424
abundance fitness: -0.197 ± 0.058

Scaffold attachment factor B1 P72T, Q15424
abundance fitness: -0.329 ± 0.085

Scaffold attachment factor B1 P72V, Q15424
abundance fitness: -0.116 ± 0.053

Scaffold attachment factor B1 P72W, Q15424
abundance fitness: -0.296 ± 0.068

Scaffold attachment factor B1 P72Y, Q15424
abundance fitness: -0.176 ± 0.06

Scaffold attachment factor B1 R29A, Q15424
abundance fitness: -0.465 ± 0.072

Scaffold attachment factor B1 R29C, Q15424
abundance fitness: -0.107 ± 0.073

Scaffold attachment factor B1 R29D, Q15424
abundance fitness: -0.37 ± 0.091

Scaffold attachment factor B1 R29E, Q15424
abundance fitness: -0.143 ± 0.068

Scaffold attachment factor B1 R29F, Q15424
abundance fitness: -0.03 ± 0.06

Scaffold attachment factor B1 R29G, Q15424
abundance fitness: -0.18 ± 0.049

Scaffold attachment factor B1 R29H, Q15424
abundance fitness: -0.262 ± 0.088

Scaffold attachment factor B1 R29I, Q15424
abundance fitness: -0.019 ± 0.062

Scaffold attachment factor B1 R29K, Q15424
abundance fitness: -0.086 ± 0.083

Scaffold attachment factor B1 R29L, Q15424
abundance fitness: -0.134 ± 0.048

Scaffold attachment factor B1 R29M, Q15424
abundance fitness: 0.03 ± 0.077

Scaffold attachment factor B1 R29N, Q15424
abundance fitness: -0.408 ± 0.1

Scaffold attachment factor B1 R29P, Q15424
abundance fitness: -0.364 ± 0.063

Scaffold attachment factor B1 R29Q, Q15424
abundance fitness: -0.222 ± 0.089

Scaffold attachment factor B1 R29S, Q15424
abundance fitness: -0.189 ± 0.063

Scaffold attachment factor B1 R29T, Q15424
abundance fitness: -0.141 ± 0.062

Scaffold attachment factor B1 R29V, Q15424
abundance fitness: -0.08 ± 0.059

Scaffold attachment factor B1 R29Y, Q15424
abundance fitness: -0.056 ± 0.076

Scaffold attachment factor B1 R30A, Q15424
abundance fitness: -0.289 ± 0.066

Scaffold attachment factor B1 R30C, Q15424
abundance fitness: -0.409 ± 0.1

Scaffold attachment factor B1 R30D, Q15424
abundance fitness: -0.384 ± 0.092

Scaffold attachment factor B1 R30E, Q15424
abundance fitness: -0.252 ± 0.06

Scaffold attachment factor B1 R30G, Q15424
abundance fitness: -0.31 ± 0.061

Scaffold attachment factor B1 R30H, Q15424
abundance fitness: -0.16 ± 0.063

Scaffold attachment factor B1 R30I, Q15424
abundance fitness: -0.33 ± 0.073

Scaffold attachment factor B1 R30K, Q15424
abundance fitness: -0.037 ± 0.066

Scaffold attachment factor B1 R30L, Q15424
abundance fitness: -0.218 ± 0.051

Scaffold attachment factor B1 R30M, Q15424
abundance fitness: -0.206 ± 0.077

Scaffold attachment factor B1 R30N, Q15424
abundance fitness: -0.411 ± 0.1

Scaffold attachment factor B1 R30P, Q15424
abundance fitness: -0.545 ± 0.094

Scaffold attachment factor B1 R30Q, Q15424
abundance fitness: -0.25 ± 0.082

Scaffold attachment factor B1 R30S, Q15424
abundance fitness: -0.133 ± 0.062

Scaffold attachment factor B1 R30V, Q15424
abundance fitness: -0.493 ± 0.052

Scaffold attachment factor B1 R30W, Q15424
abundance fitness: -0.444 ± 0.053

Scaffold attachment factor B1 R30Y, Q15424
abundance fitness: -0.383 ± 0.086

Scaffold attachment factor B1 R35A, Q15424
abundance fitness: -0.112 ± 0.059

Scaffold attachment factor B1 R35C, Q15424
abundance fitness: -0.4 ± 0.073

Scaffold attachment factor B1 R35D, Q15424
abundance fitness: -0.12 ± 0.08

Scaffold attachment factor B1 R35E, Q15424
abundance fitness: -0.195 ± 0.083

Scaffold attachment factor B1 R35F, Q15424
abundance fitness: -0.59 ± 0.082

Scaffold attachment factor B1 R35H, Q15424
abundance fitness: -0.475 ± 0.089

Scaffold attachment factor B1 R35I, Q15424
abundance fitness: -0.556 ± 0.08

Scaffold attachment factor B1 R35K, Q15424
abundance fitness: -0.217 ± 0.083

Scaffold attachment factor B1 R35L, Q15424
abundance fitness: -0.316 ± 0.063

Scaffold attachment factor B1 R35M, Q15424
abundance fitness: -0.147 ± 0.072

Scaffold attachment factor B1 R35P, Q15424
abundance fitness: -0.288 ± 0.081

Scaffold attachment factor B1 R35Q, Q15424
abundance fitness: -0.136 ± 0.077

Scaffold attachment factor B1 R35S, Q15424
abundance fitness: -0.136 ± 0.068

Scaffold attachment factor B1 R35T, Q15424
abundance fitness: 0.014 ± 0.064

Scaffold attachment factor B1 R35V, Q15424
abundance fitness: -0.28 ± 0.054

Scaffold attachment factor B1 R35W, Q15424
abundance fitness: -0.645 ± 0.079

Scaffold attachment factor B1 R40A, Q15424
abundance fitness: -0.272 ± 0.065

Scaffold attachment factor B1 R40C, Q15424
abundance fitness: -0.642 ± 0.085

Scaffold attachment factor B1 R40D, Q15424
abundance fitness: -0.642 ± 0.096

Scaffold attachment factor B1 R40F, Q15424
abundance fitness: -0.822 ± 0.08

Scaffold attachment factor B1 R40G, Q15424
abundance fitness: -0.732 ± 0.056

Scaffold attachment factor B1 R40I, Q15424
abundance fitness: -0.179 ± 0.07

Scaffold attachment factor B1 R40K, Q15424
abundance fitness: -0.416 ± 0.079

Scaffold attachment factor B1 R40L, Q15424
abundance fitness: -0.219 ± 0.055

Scaffold attachment factor B1 R40M, Q15424
abundance fitness: -0.329 ± 0.075

Scaffold attachment factor B1 R40N, Q15424
abundance fitness: -0.786 ± 0.12

Scaffold attachment factor B1 R40P, Q15424
abundance fitness: -0.763 ± 0.074

Scaffold attachment factor B1 R40Q, Q15424
abundance fitness: -0.152 ± 0.06

Scaffold attachment factor B1 R40S, Q15424
abundance fitness: -0.353 ± 0.062

Scaffold attachment factor B1 R40T, Q15424
abundance fitness: -0.319 ± 0.073

Scaffold attachment factor B1 R40V, Q15424
abundance fitness: -0.123 ± 0.067

Scaffold attachment factor B1 R40Y, Q15424
abundance fitness: -0.549 ± 0.077

Scaffold attachment factor B1 R44A, Q15424
abundance fitness: -0.029 ± 0.061

Scaffold attachment factor B1 R44D, Q15424
abundance fitness: -0.156 ± 0.1

Scaffold attachment factor B1 R44E, Q15424
abundance fitness: -0.121 ± 0.091

Scaffold attachment factor B1 R44F, Q15424
abundance fitness: -0.27 ± 0.081

Scaffold attachment factor B1 R44G, Q15424
abundance fitness: -0.096 ± 0.064

Scaffold attachment factor B1 R44H, Q15424
abundance fitness: -0.202 ± 0.072

Scaffold attachment factor B1 R44I, Q15424
abundance fitness: -0.13 ± 0.071

Scaffold attachment factor B1 R44L, Q15424
abundance fitness: -0.107 ± 0.053

Scaffold attachment factor B1 R44P, Q15424
abundance fitness: -0.715 ± 0.075

Scaffold attachment factor B1 R44Q, Q15424
abundance fitness: -0.074 ± 0.071

Scaffold attachment factor B1 R44S, Q15424
abundance fitness: -0.096 ± 0.065

Scaffold attachment factor B1 R44T, Q15424
abundance fitness: -0.024 ± 0.062

Scaffold attachment factor B1 R44V, Q15424
abundance fitness: -0.092 ± 0.054

Scaffold attachment factor B1 R46A, Q15424
abundance fitness: -0.745 ± 0.069

Scaffold attachment factor B1 R46C, Q15424
abundance fitness: -0.445 ± 0.1

Scaffold attachment factor B1 R46D, Q15424
abundance fitness: -0.832 ± 0.071

Scaffold attachment factor B1 R46E, Q15424
abundance fitness: -0.954 ± 0.1

Scaffold attachment factor B1 R46F, Q15424
abundance fitness: -0.545 ± 0.069

Scaffold attachment factor B1 R46G, Q15424
abundance fitness: -0.84 ± 0.053

Scaffold attachment factor B1 R46H, Q15424
abundance fitness: -0.423 ± 0.12

Scaffold attachment factor B1 R46I, Q15424
abundance fitness: -0.642 ± 0.072

Scaffold attachment factor B1 R46K, Q15424
abundance fitness: -0.602 ± 0.11

Scaffold attachment factor B1 R46L, Q15424
abundance fitness: -0.491 ± 0.063

Scaffold attachment factor B1 R46M, Q15424
abundance fitness: -0.384 ± 0.1

Scaffold attachment factor B1 R46N, Q15424
abundance fitness: -0.819 ± 0.15

Scaffold attachment factor B1 R46P, Q15424
abundance fitness: -0.937 ± 0.12

Scaffold attachment factor B1 R46Q, Q15424
abundance fitness: -0.734 ± 0.089

Scaffold attachment factor B1 R46S, Q15424
abundance fitness: -0.763 ± 0.068

Scaffold attachment factor B1 R46T, Q15424
abundance fitness: -0.845 ± 0.11

Scaffold attachment factor B1 R46V, Q15424
abundance fitness: -0.797 ± 0.074

Scaffold attachment factor B1 R46W, Q15424
abundance fitness: -0.8 ± 0.062

Scaffold attachment factor B1 R46Y, Q15424
abundance fitness: -0.463 ± 0.064

Scaffold attachment factor B1 R60A, Q15424
abundance fitness: -0.22 ± 0.054

Scaffold attachment factor B1 R60C, Q15424
abundance fitness: -0.676 ± 0.1

Scaffold attachment factor B1 R60D, Q15424
abundance fitness: -0.659 ± 0.13

Scaffold attachment factor B1 R60E, Q15424
abundance fitness: -0.551 ± 0.089
